What was measured:
[1] = target: high molecular weight (HMW) proto-fibrillar (PF) oligomer enriched preparation of the Aβ1-42 peptide (Example 15) (human); assay: ELISA, fraction coated at 2 µM; antibody 0.0625 µg/ml
[2] = target: low molecular weight (LMW) monomeric preparation of the Aβ1-42 peptide (Example 15) (human); assay: as above
[3] = target: high molecular weight (HMW) proto-fibrillar (PF) oligomer enriched preparation of the Aβ1-42 peptide (Example 15) (human); assay: ELISA, fraction coated at 2 µM; antibody 0.0313 µg/ml
[4] = target: low molecular weight (LMW) monomeric preparation of the Aβ1-42 peptide (Example 15) (human); assay: as above
[5] = target: monomer-enriched preparation of the Aβ1-42 peptide (Example 16); assay: ELISA, fraction coated at 2.2 µM; assay 2; antibody dilution 1:16 (start 0.5 µg/ml)
[6] = target: oligomer-enriched preparation of the Aβ1-42 peptide (Example 16); assay: as above
[7] = target: monomer-enriched preparation of the Aβ1-42 peptide (Example 16); assay: ELISA, fraction coated at 2.2 µM; assay 2; antibody dilution 1:64 (start 0.5 µg/ml)
[8] = target: oligomer-enriched preparation of the Aβ1-42 peptide (Example 16); assay: as above
[9] = target: monomer-enriched preparation of the Aβ1-42 peptide (Example 16); assay: ELISA, fraction coated at 2.2 µM; assay 1; antibody dilution 1:128 (start 0.5 µg/ml)
[10] = target: oligomer-enriched preparation of the Aβ1-42 peptide (Example 16); assay: as above
[11] = target: monomer-enriched preparation of the Aβ1-42 peptide (Example 16); assay: ELISA, fraction coated at 2.2 µM; assay 1; antibody dilution 1:32 (start 0.5 µg/ml)
[12] = target: oligomer-enriched preparation of the Aβ1-42 peptide (Example 16); assay: as above
[13] = target: monomer-enriched preparation of the Aβ1-42 peptide (Example 16); assay: ELISA, fraction coated at 2.2 µM; assay 2; antibody dilution 1:128 (start 0.5 µg/ml)
[14] = target: oligomer-enriched preparation of the Aβ1-42 peptide (Example 16); assay: as above
[15] = target: oligomer-enriched preparation of the Aβ1-42 peptide (Example 16); assay: ELISA, fraction coated at 2.2 µM; assay 1; antibody dilution 1:4 (start 0.5 µg/ml)
[16] = target: high molecular weight (HMW) proto-fibrillar (PF) oligomer enriched preparation of the Aβ1-42 peptide (Example 15) (human); assay: ELISA, fraction coated at 2 µM; antibody 0.125 µg/ml
[17] = target: low molecular weight (LMW) monomeric preparation of the Aβ1-42 peptide (Example 15) (human); assay: as above
[18] = target: monomer-enriched preparation of the Aβ1-42 peptide (Example 16); assay: ELISA, fraction coated at 2.2 µM; antibody dilution 1:1 (start 0.5 µg/ml)
[19] = target: oligomer-enriched preparation of the Aβ1-42 peptide (Example 16); assay: as above
[20] = target: monomer-enriched preparation of the Aβ1-42 peptide (Example 16); assay: ELISA, fraction coated at 2.2 µM; antibody dilution 1:64 (start 0.5 µg/ml)
[21] = target: oligomer-enriched preparation of the Aβ1-42 peptide (Example 16); assay: as above
[22] = target: monomer-enriched preparation of the Aβ1-42 peptide (Example 16); assay: ELISA, fraction coated at 2.2 µM; assay 1; antibody dilution 1:1 (start 0.5 µg/ml)
[23] = target: oligomer-enriched preparation of the Aβ1-42 peptide (Example 16); assay: as above
[24] = target: oligomer-enriched preparation of the Aβ1-42 peptide (Example 16); assay: ELISA, fraction coated at 2.2 µM; antibody dilution 1:2 (start 0.5 µg/ml)
[25] = target: monomer-enriched preparation of the Aβ1-42 peptide (Example 16); assay: ELISA, fraction coated at 2.2 µM; assay 3; antibody dilution 1:64 (start 0.5 µg/ml)
[26] = target: oligomer-enriched preparation of the Aβ1-42 peptide (Example 16); assay: as above
[27] = target: monomer-enriched preparation of the Aβ1-42 peptide (Example 16); assay: ELISA, fraction coated at 2.2 µM; assay 3; antibody dilution 1:2 (start 0.5 µg/ml)
[28] = target: oligomer-enriched preparation of the Aβ1-42 peptide (Example 16); assay: as above
[29] = target: oligomer-enriched preparation of the Aβ1-42 peptide (Example 16); assay: ELISA, fraction coated at 2.2 µM; assay 3; antibody dilution 1:8 (start 0.5 µg/ml)
[30] = target: high molecular weight (HMW) proto-fibrillar (PF) oligomer enriched preparation of the Aβ1-42 peptide (Example 15) (human); assay: ELISA, fraction coated at 2 µM; antibody 0.25 µg/ml
[31] = target: low molecular weight (LMW) monomeric preparation of the Aβ1-42 peptide (Example 15) (human); assay: as above
[32] = target: high molecular weight (HMW) proto-fibrillar (PF) oligomer enriched preparation of the Aβ1-42 peptide (Example 15) (human); assay: ELISA, fraction coated at 2 µM; antibody 0.0156 µg/ml
[33] = target: low molecular weight (LMW) monomeric preparation of the Aβ1-42 peptide (Example 15) (human); assay: as above

Sequence of high molecular weight (HMW) proto-fibrillar (PF) oligomer enriched preparation of the Aβ1-42 peptide (Example 15) (human) (peptide, as listed by the source): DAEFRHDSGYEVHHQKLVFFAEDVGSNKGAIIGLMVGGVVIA
Sequence of oligomer-enriched preparation of the Aβ1-42 peptide (Example 16) (peptide, as listed by the source): as above
Sequence of low molecular weight (LMW) monomeric preparation of the Aβ1-42 peptide (Example 15) (human) (peptide, as listed by the source): as above
Sequence of monomer-enriched preparation of the Aβ1-42 peptide (Example 16) (peptide, as listed by the source): as above

Substance: 6E10 control antibody
- O.D. (405 nm) [1]: 0.544 O.D.
- O.D. (405 nm) [2]: 0.574 O.D.
- O.D. (405 nm) [3]: 0.286 O.D.
- O.D. (405 nm) [4]: 0.329 O.D.
- O.D. (405 nm) [5]: 1.94 O.D.
- O.D. (405 nm) [6]: 1.92 O.D.
- O.D. (405 nm) [7]: 0.94 O.D.
- O.D. (405 nm) [8]: 0.88 O.D.
- O.D. (405 nm) [9]: 0.64 O.D.
- O.D. (405 nm) [10]: 0.62 O.D.
- O.D. (405 nm) [11]: 1.18 O.D.
- O.D. (405 nm) [12]: 1.27 O.D.
- O.D. (405 nm) [13]: 0.75 O.D.
- O.D. (405 nm) [14]: 0.61 O.D.
- O.D. (405 nm) [15]: 3.1 O.D.
- O.D. (405 nm) [16]: 0.863 O.D.
- O.D. (405 nm) [17]: 0.999 O.D.
- O.D. (405 nm), mean of 3 assays [18]: 3.83 O.D.
- O.D. (405 nm), mean of 3 assays [19]: 3.64 O.D.
- O.D. (405 nm), mean of 3 assays [20]: 0.94 O.D.
- O.D. (405 nm), mean of 3 assays [21]: 0.92 O.D.
- O.D. (405 nm) [22]: 3.67 O.D.
- O.D. (405 nm) [23]: 3.36 O.D.
- O.D. (405 nm), mean of 3 assays [24]: 3.59 O.D.
- O.D. (405 nm) [25]: 1.08 O.D.
- O.D. (405 nm) [26]: 0.95 O.D.
- O.D. (405 nm) [27]: 4 O.D.
- O.D. (405 nm) [28]: 3.83 O.D.
- O.D. (405 nm) [29]: 3.23 O.D.
- O.D. (405 nm) [30]: 1.44 O.D.
- O.D. (405 nm) [31]: 1.56 O.D.
- O.D. (405 nm) [32]: 0.201 O.D.
- O.D. (405 nm) [33]: 0.207 O.D.

From patent US20090017041A1
